Experimental findings from patent US20240349732A1 (IMPETUS AGRICULTURE, published 2024) are described below.

To fix the notation:
B1: NAAT monospecific nanobody #29 (VHH)
VHH: QVQLQESGGGVVQTGGSLTLSCKASRRTSGFAMAWFRQAPGMEREFVAGIGRTGDNIHYLDSVKGRFTISRDNTKNTLSLQMNNLKPEDTAVYYCLRTMGGTWSEKGQGTQVTVSS
notes: Llama VHH; also called NAAT29
B2: NAAT monospecific nanobody #2 (VHH)
VHH: QVQLQESGGGVVQTGGSLTLSCKASRRTSGFAMAWFRQAPGMEREFVAGIGRTGDNIHYLDSVKGRFTISRDNTKNTLSLQMNSLRPGDTAVYYCAADVTKSGFIYWGQGTQVTVSS
notes: Llama VHH; also called NAAT2
B3: NAAT monospecific nanobody #6 (VHH)
VHH: QVQLQESGGGVVQTGGSLTLSCKASRRTSGFAMAWFRQAPGMEREFVAGIGRTGDNIHYLDSVKGRFTISRDNTKNTLSLQMNSLKSEDTAVYYCAKVVVVAGSPSFDAWGQGTQVTVSS
notes: Llama VHH; also called NAAT6
B4: NAAT monospecific nanobody #1 (VHH)
VHH: QVQLQESGGGLVQAGGSLRLSCAASGRTFSRYAMGWFRQALGKEREFVAGINWSGSMTYYADSVKGRFTISRDNAKNMLYLQMNSLKSEDTAVYYCAGVTVVGGAPAFDYWGQGTQVTVSS
notes: Llama VHH; also called NAAT1
B5: NAAT monospecific nanobody #5 (VHH)
VHH: QVQLQESGGGLVQPGGSLRLACVLSGGPSSSYGVGWFRQRSGTEREFVAAISGSGRTIHYVDDVKGRFAISRDSAKNAVDLQMNNLKPEDTAVYYCAALALVTTHPTSNVGEWDYWGQGTQVTVSS
notes: Llama VHH; also called NAAT5
B6: NAAT monospecific nanobody #10 (VHH)
VHH: QVQLQESGGGLVQAGGSLTLSCAFSGRTFTHYAMAWFRQAPGKERKFVAGVTRSGPNTYYDDSVQGRFTISRDNAKNTVYLHMNSLKPEDTAVYYCAANSGVVSGYDYWGQGTQVTVSS
notes: Llama VHH; also called NAAT10
B7: Cadherin monospecific nanobody #2 (VHH)
VHH: QVQLQESGGGLVQAGASLRLSCAASRRTGSSLTMGWFRQAPGKEREFVAAISRSGIRTYYADFVKGRFTISRDNAKNTLYLQMNSLKPEDTAVYYCAANDKTYGSGLDVYTRRQNYYYWGPGTQVTVSS
notes: Llama VHH; also called Cad2
B8: Cadherin monospecific nanobody #48 (VHH)
VHH: QVQLQESGGGLVQAGASLRLSCAASRRTGSSLTMGWFRQAPGREREFVAAISRSGIRTYYADFVKGRFTISRDNAKNTLYLQMNSLKPEDTAVYYCAANDKTYGSGLDVYTRRQDYYYWGPGTQVTVSS
notes: Llama VHH; also called Cad48
B9: Cadherin monospecific nanobody #43 (VHH)
VHH: QVQLQESGGGLAQAGASLRLSCAASRRTGSSLTMGWFRQAPGKEREFVAAISRSGIRTYYADFVKGRFTISRDNAKNTLYLQMNSLKPEDTAVYYCAANDKTYGSGLDVYTRRQDYYYWGPGTQVTVSS
notes: Llama VHH; also called Cad43
B10: Cadherin monospecific nanobody #46 (VHH)
VHH: QVQLQESGGGSVQAGGSLKLSCAASGTESIFIVMGWYRQAPGKERELVAAMSFGGGTNVTDGVRGRFTISRDFDKNTVDLQMNNLKTEDTAVYYCNAVQWGPRDYWGQGTQVTVSS
notes: Llama VHH; also called Cad46
B11: Cadherin monospecific nanobody #50 (VHH)
VHH: QVQLQESGGGLVQAGASLRLSCAASRRTGSSLTMGWFRQAPGKEREFVAAISRSGIRTYYADFVKGRFTISRDNGENTLYLQINSLKPEDTAVYYCAASSNPGYYRTAPNQYNFWGPGTQVTVSS
notes: Llama VHH; also called Cad50

The target in the first test is T1, 57NAAT1like (second extracellular loop of Spodoptera frugiperda sodium-dependent nutrient amino acid … (Spodoptera frugiperda)).
T1 construct: 57 aa antigen; also called NAAT antigen
T1 chain: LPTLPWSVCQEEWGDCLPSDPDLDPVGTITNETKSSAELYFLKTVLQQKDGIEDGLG
In words: ELISA of periplasmic extracts on passively coated non-biotinylated 57NAAT1like.
Turning to B1, the binding result is “binds”. The same measure, in the same setting: as for B2, the entry is “binds”; as for B3, “binds”; as for B4, “binds”.

In the case of B5, the binding result is given as “binds”. As to B6, the binding result was “binds”.

A further test deals with T2, tagless FAW Cadherin antigen (Spodoptera frugiperda).
T2 construct: the batch used for panning is called tagless; also called Sp.f Cadherin
T2 chain: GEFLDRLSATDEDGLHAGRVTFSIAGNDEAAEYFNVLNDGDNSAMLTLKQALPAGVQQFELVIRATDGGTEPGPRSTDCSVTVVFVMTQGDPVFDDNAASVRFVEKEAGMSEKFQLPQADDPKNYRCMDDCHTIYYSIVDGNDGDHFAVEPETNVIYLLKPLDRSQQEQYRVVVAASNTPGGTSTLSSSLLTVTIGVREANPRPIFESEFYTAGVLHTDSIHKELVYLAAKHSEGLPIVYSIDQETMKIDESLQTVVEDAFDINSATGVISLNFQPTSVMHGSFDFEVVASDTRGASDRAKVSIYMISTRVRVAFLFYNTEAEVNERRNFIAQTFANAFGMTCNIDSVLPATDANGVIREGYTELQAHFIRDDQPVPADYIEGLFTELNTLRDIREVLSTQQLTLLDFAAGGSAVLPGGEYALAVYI
As to the kind of experiment: screen of colonies after 3 rounds of phage panning on solid-phase coated tagless FAW Cadherin antigen.
Turning to B7, the binding result is on record as “binds”.

B8: the binding result is given as “binds”. Still for that read-out and setting: for B9 the value was “binds”; for B10, “binds”; for B11, “binds”.
